The values that follow come from PMC12552534.

Usually stoichiometry N stands for a count of units in the complex or per binding partner.

Experiment [1] addresses N terminally histidine-tagged N-terminal domain of STAT3 (STAT3ND) (human) (UniProt P40763). Nature of the experiment: SEC; Y3 and STAT3ND alone or mixed equimolar (100 μM in text and methods, 50 μM in the legend), preincubated 10 min on ice; Superdex 75 Increase 10/300 GL, 20 mM Tris-HCl pH 8.0, 100 mM NaCl, 4 °C, 0.5 ml/min; fractions on SDS-PAGE. Background: In gel filtration, larger molecules generally elute earlier.

Experiment [2] shares this target. Description: native MS; Y3 (50 μM) complexed with STAT3ND (50 μM), buffer-exchanged to 450 mM ammonium acetate pH 8.0, nano-ESI, native condition.
Experiment [3] has as its target N terminally histidine-tagged Y3 (C-terminal region of Sendai virus C protein) (Sendai virus). The experiment is described as above.
In experiment [4] the target is C terminally LgBiT-fused C protein (Sendai virus). Description: split reporter (BiFC, NanoBiT); NanoBiT; 293T cells co-transfected with LgBiT-fused C and SmBiT-fused STAT1, STAT3 or SV40 large T antigen (negative control), 24 h; luciferase activity measured in NP-40 lysates, normalised to GAPDH; control set to 1.
C terminally LgBiT-fused C protein (Sendai virus), sequence (P04862 1-204): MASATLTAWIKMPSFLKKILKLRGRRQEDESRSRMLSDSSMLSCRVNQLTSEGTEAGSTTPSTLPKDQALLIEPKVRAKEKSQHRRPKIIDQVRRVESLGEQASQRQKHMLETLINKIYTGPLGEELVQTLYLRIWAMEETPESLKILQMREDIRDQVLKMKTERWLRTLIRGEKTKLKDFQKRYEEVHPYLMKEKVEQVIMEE

“N terminally histidine-tagged N-terminal domain of STAT3 (STAT3ND) (from UniProt P40763 3-138) (domain or fragment)” gave a stoichiometry N in experiment [1] of 2. In turn, “N terminally histidine-tagged Y3 (C-terminal region of Sendai virus C protein) (domain or fragment)” yielded a stoichiometry N (Y3 per STAT3ND (1:2)) in experiment [2] of 0.5. In experiment [3], the stoichiometry N came to 2.

In experiment [4], “N terminally SmBiT-fused STAT3 (from UniProt P40763 1-770) (natural protein)” came in with a luciferase activity, fold lower than with SmBiT-fused STAT1 of 4.8 fold and a luciferase activity, fold over the SmBiT-fused SV40 large T antigen negative control of 1.3 fold.
